The koff is the rate constant with which the complex falls apart. Broadly, the Kd is a measure of binding affinity in units of concentration.

B1: Y498 IgG1 (antibody, V domains shown)
VH: KVQLVQSGTELKKPGASGKVSCKASGYTFNSNGLNWVRQAPGQGLEWVGWISGHSDETKHAQNFQGRLTLTTDTSTNTAYMELRSLRSDDTAVYYCARSLLRSLERLMGGTDAFDIWGQGTLVTVSS
VL: not shown
B2: JRFL rgp120 (natural protein)
chain: not shown

Among the targets are CN54 rgp120 (HIV-1 CN54 (CRF07_BC)); VRC01; b12.
Experiment in all cases: SPR
The experiment “JRFL rgp120” has as its target B2.

Turning to B1, the off-rate constant (koff) came out at 0.000105 s⁻¹ with JRFL rgp120 and 2.3e-05 s⁻¹ in the experiment with CN54 rgp120.
In the experiment with VRC01, B2 displayed a Kd of 5.35 nM and a koff of 0.000167 s⁻¹. Moreover, in the experiment with b12, the affinity, expressed as Kd, was 1.11 nM and the koff worked out at 0.000567 s⁻¹.

These data come from PMC5609902 (2017).
